# Source: PMC13544220, “Glycemic and bodyweight effects of GIPR coding variation reflect differences in surface expression and intrinsic functional impairment” (Science Advances, 2026)
# Numbering of substitutions follows the chain as printed. Numbers in names are those of the source.
# B1: S415I (protein, UniProt P48546 22-466, looked up, variant S415I)
# Gastric inhibitory …: RAETGSKGQTAGELYQRWERYRRECQETLAAAEPPSGLACNGSFDMYVCWDYAAPNATARASCPWYLPWHHHVAAGFVLRQCGSDGQWGLWRDHTQCENPEKNEAFLDQRLILERLQVMYTVGYSLSLATLLLALLILSLFRRLHCTRNYIHINLFTSFMLRAAAILSRDRLLPRPGPYLGDQALALWNQALAACRTAQIVTQYCVGANYTWLLVEGVYLHSLLVLVGGSEEGHFRYYLLLGWGAPALFVIPWVIVRYLYENTQCWERNEVKAIWWIIRTPILMTILINFLIFIRILGILLSKLRTRQMRCRDYRLRLARSTLTLVPLLGVHEVVFAPVTEEQARGALRFAKLGFEIFLSSFQGFLVSVLYCFINKEVQSEIRRGWHHCRLRRILGEEQRQLPERAFRALPSGSGPGEVPTSRGLSSGTLPGPGNEASRELESYC
# B2: S447T (protein, UniProt P48546 22-466, looked up, variant S447T)
# Gastric inhibitory …: B1 Gastric inhibitory … with I394S, S426T
# Tests used:
# Format in all cases: cell-based, human
# [1] = system: wild-type and variant SNAP-GIPR; assay: Surface SNAP-GIPR expression (SNAP-tag labelling) in AD293 cells; details: for AD293 Surface: Fig S3E, mean; for Surface SNAP-GIPR expression: sheet Fig 1C;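 on all read-outs here: scaled to the experimental average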
# How it was run: (§1)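 Surface GIPR is quantified from wide-field images after labelling intact transfected cells with a membrane-impermeant SNAP probe at 500 nM for 10 min at room temperature. Specific signal, corrected for nontransfected cells, is normalized to the experiment-wide average or to wild-type.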
# [2] = system: wild-type and variant SNAP-GIPR; assay: Surface SNAP-GIPR expression (SNAP-tag labelling) in INS-1 cells; details: Fig 4G; Mean
# How it was run: as §1
# [3] = system: wild-type and variant SNAP-GIPR; assay: Single-concentration GIP cAMP response by HTRF in AD293 cells; details: Fig S3F, HTRF, mean;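 further: ratio to experiment-wide average response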
# Protocol: (§2) All variants were tested in parallel on each occasion to control for transfection efficiency differences between experiments.
# [4] = system: wild-type and variant SNAP-GIPR; assay: Single-concentration GIP cAMP response by HTRF in INS-1 cells; details: Fig S3E, mean
# Protocol: as §2
# [5] = system: wild-type and variant SNAP-GIPR; assay: cADDis cAMP imaging in AD293 cells, ensemble, expression-matched and per decile; details: Fig S3F, cADDis, mean
# How it was run: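 Transient SNAP-GIPR plus cADDis BacMam in AD293; 24 h; SNAP-Surface AF647 500 nM, 10 min RT; wide-field 10X imaging at 37°C in KRBH/6 mM glucose/0.1% BSA. Cells failing IBMX/FSK response criteria excluded.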
# [6] = system: wild-type and variant SNAP-GIPR; assay: Constitutive and agonist-mediated internalization, reversible SNAP-tag labelling, AD293 cells; parameters: key to Internalisation, Vehicle / Internalisation, +GIP / Internalisation, GIP-only: % internalization: residual fluorescence after Mesna vs pre-Mesna; Surface expression: unit not given here; details: Mean; for +GIP internalisation (100 nM) / GIP-specific internalisation (100 nM) / Constitutive internalisation (100 nM) / Surface expression: Fig 4E; for +GIP internalisation (100 nM) / GIP-specific internalisation (100 nM): GIP 100 nM; for Internalisation, +GIP / Internalisation, GIP-only / Internalisation, Vehicle: Fig S4C, AD293
# How it was run: (§3)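 Surface SNAP-GIPR signal removable by Mesna was tracked by imaging before and 10 min after treatment in pH 8.6 TNE buffer. Internalization is the Mesna-resistant share of specific fluorescence.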
# [7] = system: wild-type and variant SNAP-GIPR; assay: Constitutive and agonist-mediated internalization, reversible SNAP-tag labelling, INS-1 cells; parameters: key to Internalisation, GIP-only / Internalisation, Vehicle / Internalisation, +GIP: % internalization: residual fluorescence after Mesna vs pre-Mesna; details: Mean; for +GIP internalisation (100 nM) / GIP-specific internalisation (100 nM) / Constitutive internalisation (100 nM): Fig 4G; for +GIP internalisation (100 nM) / GIP-specific internalisation (100 nM): GIP 100 nM; for Internalisation, +GIP / Internalisation, GIP-only / Internalisation, Vehicle: Fig S4C, INS-1
# How it was run: as §3
# [8] = column repeated, paired with cAMP 100 nM
molecule,measurement,setting,value
B1,AD293 Surface,[1]; [8],1.415
same,AD293 Surface,[1]; paired with cAMP 100 pM,1.415
same,Surface SNAP-GIPR expression,[1]; replicate 1,1.538
same,Surface SNAP-GIPR expression,[1]; replicate 2,1.541
same,Surface SNAP-GIPR expression,[1]; replicate 3,0.8191
same,Surface SNAP-GIPR expression,[1]; replicate 4,0.7376
same,Surface SNAP-GIPR expression,[1]; replicate 5,1.239
same,Surface SNAP-GIPR expression,[1]; replicate 6,0.9541
same,Surface SNAP-GIPR expression,[1]; replicate 7,1.285
same,Surface SNAP-GIPR expression,[1]; replicate 8,1.716
same,Surface SNAP-GIPR expression,[1]; replicate 9,1.542
same,Surface SNAP-GIPR expression,[1]; replicate 10,1.528
same,Surface SNAP-GIPR expression,[1]; replicate 11,1.71
same,Surface SNAP-GIPR expression,[1]; replicate 12,1.642
same,Surface SNAP-GIPR expression,[1]; replicate 13,1.407
same,Surface SNAP-GIPR expression,[1]; replicate 14,1.415
same,Surface SNAP-GIPR expression,[1]; replicate 15,1.606
same,Surface SNAP-GIPR expression,[1]; replicate 16,1.78
same,Surface SNAP-GIPR expression,[1]; replicate 17,1.435
same,Surface SNAP-GIPR expression,[1]; replicate 18,1.518
same,Surface SNAP-GIPR expression,[1]; replicate 19,1.637
same,Surface SNAP-GIPR expression,[1]; replicate 20,1.459
same,Surface SNAP-GIPR expression,[1]; replicate 21,1.421
same,Surface SNAP-GIPR expression,[1]; replicate 22,1.515
same,Surface SNAP-GIPR expression,[1]; replicate 23,1.665
same,Surface SNAP-GIPR expression,[1]; replicate 24,1.354
same,Surface SNAP-GIPR expression,[1]; replicate 25,1.699
same,Surface SNAP-GIPR expression,[1]; replicate 26,1.338
same,Surface SNAP-GIPR expression,[1]; replicate 27,1.389
same,Surface SNAP-GIPR expression,[1]; replicate 28,1.441
same,Surface SNAP-GIPR expression,[1]; replicate 29,1.484
same,Surface SNAP-GIPR expression,[1]; replicate 30,1.535
same,Surface SNAP-GIPR expression,[1]; replicate 31,1.596
same,Surface SNAP-GIPR expression,[1]; replicate 32,1.349
same,Surface SNAP-GIPR expression,[1]; replicate 33,1.554
same,Surface SNAP-GIPR expression,[1]; replicate 34,1.711
same,Surface SNAP-GIPR expression,[1]; replicate 35,1.113
same,Surface SNAP-GIPR expression,[1]; replicate 36,1.535
same,Surface SNAP-GIPR expression,[1]; replicate 37,1.264
same,Surface SNAP-GIPR expression,[1]; replicate 38,1.181
same,Surface SNAP-GIPR expression,[1]; replicate 39,0.9176
same,Surface SNAP-GIPR expression,[1]; replicate 40,1.301
same,Surface SNAP-GIPR expression,[1]; replicate 41,1.157
same,Surface expression,[2],1.368
same,AD293 100 pM HTRF,[3],1.488
same,AD293 100 nM HTRF,[3],1.113
same,INS-1 cAMP (100 nM),[4],1.251
same,AD293 100 pM cADDis,[5],31.0791
same,AD293 100 nM cADDis,[5],35.96
same,+GIP internalisation (100 nM),[6],0.7539
same,GIP-specific internalisation (100 nM),[6],0.1889
same,Constitutive internalisation (100 nM),[6],0.565
same,Surface expression,[6],1.257
same,"Internalisation, +GIP",[6],60.2605
same,"Internalisation, GIP-only",[6],14.9072
same,"Internalisation, Vehicle",[6],45.3533
same,+GIP internalisation (100 nM),[7],0.7564
same,GIP-specific internalisation (100 nM),[7],0.2171
same,Constitutive internalisation (100 nM),[7],0.5393
same,"Internalisation, +GIP",[7],53.8917
same,"Internalisation, GIP-only",[7],15.145
same,"Internalisation, Vehicle",[7],38.7467
B2,AD293 Surface,[1]; [8],1.404
same,AD293 Surface,[1]; paired with cAMP 100 pM,1.404
same,Surface SNAP-GIPR expression,[1]; replicate 1,1.604
same,Surface SNAP-GIPR expression,[1]; replicate 2,1.279
same,Surface SNAP-GIPR expression,[1]; replicate 3,1.391
same,Surface SNAP-GIPR expression,[1]; replicate 4,2.61
same,Surface SNAP-GIPR expression,[1]; replicate 5,1.403
same,Surface SNAP-GIPR expression,[1]; replicate 6,1.423
same,Surface SNAP-GIPR expression,[1]; replicate 7,1.077
same,Surface SNAP-GIPR expression,[1]; replicate 8,1.469
same,Surface SNAP-GIPR expression,[1]; replicate 9,1.63
same,Surface SNAP-GIPR expression,[1]; replicate 10,1.374
same,Surface SNAP-GIPR expression,[1]; replicate 11,1.745
same,Surface SNAP-GIPR expression,[1]; replicate 12,1.689
same,Surface SNAP-GIPR expression,[1]; replicate 13,1.462
same,Surface SNAP-GIPR expression,[1]; replicate 14,1.46
same,Surface SNAP-GIPR expression,[1]; replicate 15,1.674
same,Surface SNAP-GIPR expression,[1]; replicate 16,1.628
same,Surface SNAP-GIPR expression,[1]; replicate 17,1.349
same,Surface SNAP-GIPR expression,[1]; replicate 18,1.205
same,Surface SNAP-GIPR expression,[1]; replicate 19,1.299
same,Surface SNAP-GIPR expression,[1]; replicate 20,1.361
same,Surface SNAP-GIPR expression,[1]; replicate 21,1.342
same,Surface SNAP-GIPR expression,[1]; replicate 22,1.393
same,Surface SNAP-GIPR expression,[1]; replicate 23,1.314
same,Surface SNAP-GIPR expression,[1]; replicate 24,1.27
same,Surface SNAP-GIPR expression,[1]; replicate 25,1.747
same,Surface SNAP-GIPR expression,[1]; replicate 26,1.476
same,Surface SNAP-GIPR expression,[1]; replicate 27,1.434
same,Surface SNAP-GIPR expression,[1]; replicate 28,1.161
same,Surface SNAP-GIPR expression,[1]; replicate 29,0.9451
same,Surface SNAP-GIPR expression,[1]; replicate 30,1.119
same,Surface SNAP-GIPR expression,[1]; replicate 31,1.316
same,Surface SNAP-GIPR expression,[1]; replicate 32,1.418
same,Surface SNAP-GIPR expression,[1]; replicate 33,1.322
same,Surface SNAP-GIPR expression,[1]; replicate 34,1.362
same,Surface SNAP-GIPR expression,[1]; replicate 35,1.415
same,Surface SNAP-GIPR expression,[1]; replicate 36,1.515
same,Surface SNAP-GIPR expression,[1]; replicate 37,1.174
same,Surface SNAP-GIPR expression,[1]; replicate 38,1.292
same,Surface SNAP-GIPR expression,[1]; replicate 39,1.035
same,Surface SNAP-GIPR expression,[1]; replicate 40,1.181
same,Surface SNAP-GIPR expression,[1]; replicate 41,1.207
same,Surface expression,[2],1.143
same,AD293 100 pM HTRF,[3],1.563
same,AD293 100 nM HTRF,[3],1.418
same,INS-1 cAMP (100 nM),[4],1.225
same,AD293 100 pM cADDis,[5],33.2503
same,AD293 100 nM cADDis,[5],38.05
same,+GIP internalisation (100 nM),[6],0.6943
same,GIP-specific internalisation (100 nM),[6],0.1731
same,Constitutive internalisation (100 nM),[6],0.5211
same,Surface expression,[6],1.271
same,"Internalisation, +GIP",[6],54.6308
same,"Internalisation, GIP-only",[6],13.6704
same,"Internalisation, Vehicle",[6],40.9604
same,+GIP internalisation (100 nM),[7],0.5789
same,GIP-specific internalisation (100 nM),[7],0.1373
same,Constitutive internalisation (100 nM),[7],0.4416
same,"Internalisation, +GIP",[7],49.3117
same,"Internalisation, GIP-only",[7],11.6867
same,"Internalisation, Vehicle",[7],37.625
